The target of the assay is β-amyloid (Aβ) protein from brains of rTg9191 mice (human). Nature of the assay: SDS-PAGE and Western blot under denaturing conditions; water-soluble fraction of brain extracts (three-step protocol); samples heated at 95°C with SDS and β-mercaptoethanol, 10-20% Tris-Tricine gels, immunoblot for Aβ; mice of 4, 12, 21, 24 and 26 months.

This passage reports stoichiometry N results from PMC4422728.

By stoichiometry N is commonly meant the number of molecules, sites or subunits per partner or assembly. Consider “β-amyloid (Aβ) protein from brains of rTg9191 mice (peptide)”, for which the stoichiometry N turned out to be 2.
